Results published in the supplement of paper PMC7125110.
± gives the standard error. Variants at the floor of the assay were thinned out.

B1: glmS ribozyme (parent)
chain: AUAAAAGCGCCAGAACUACAGAAAUGUAGUUGACGAGGAGGAGGUUUAUCGAAUUUUCGGCGGAUGCCUCCAAA

Assays:
Details in all cases: with glucosamine-6-phosphate
glucosamine-6-phosphate [1] = variants of: B1; experiment: self-cleavage kobs at 40 uM GlcN6P; higher = faster cleavage; RNA array
Method in brief: (§1)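 Barcoded ribozyme variants, transcribed in situ by E. coli RNA polymerase on sequenced MiSeq chips, were followed via a hybridised Cy3 probe at 37 °C. Glucosamine-6-phosphate ranged from 40 μM to 10 mM in HEPES/KCl/Mg(OAc)2 buffer. kobs came from decay fits to per-tile medians, and kcat and KM from weighted Michaelis–Menten fits.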

glucosamine-6-phosphate [2] = variants of: B1; experiment: self-cleavage kobs at 160 uM GlcN6P; higher = faster cleavage; RNA array
Method in brief: as §1

glucosamine-6-phosphate [3] = variants of: B1; experiment: self-cleavage kobs at 640 uM GlcN6P; higher = faster cleavage; RNA array
Method in brief: as §1

glucosamine-6-phosphate [4] = variants of: B1; experiment: self-cleavage kobs at 2500 uM GlcN6P; higher = faster cleavage; RNA array
Method in brief: as §1

glucosamine-6-phosphate [5] = variants of: B1; experiment: self-cleavage kobs at 10000 uM GlcN6P; higher = faster cleavage; RNA array
Method in brief: as §1

Variant	self-cleavage kobs at 40 uM GlcN6P (glucosamine-6-phosphate [1])	self-cleavage kobs at 160 uM GlcN6P (glucosamine-6-phosphate [2])	self-cleavage kobs at 640 uM GlcN6P (glucosamine-6-phosphate [3])	self-cleavage kobs at 2500 uM GlcN6P (glucosamine-6-phosphate [4])	self-cleavage kobs at 10000 uM GlcN6P (glucosamine-6-phosphate [5])
A36U G41A	< 1e-05 s⁻¹	< 1e-05 s⁻¹	< 1e-05 s⁻¹	< 1e-05 s⁻¹	< 1e-05 s⁻¹
A6U A12U U65G	< 1e-05 s⁻¹				
G29A A36G	< 1e-05 s⁻¹	< 1e-05 s⁻¹	< 1e-05 s⁻¹	< 1e-05 s⁻¹	
G9U G44U	< 1e-05 s⁻¹		< 1e-05 s⁻¹	< 1e-05 s⁻¹	< 1e-05 s⁻¹
C16G U30G C50G	0.00013 ± 4.8e-05 s⁻¹		6.59e-05 ± 3.2e-05 s⁻¹	0.000324 ± 5e-05 s⁻¹	7.3e-05 ± 1.9e-05 s⁻¹
A6G U30C G35A A39G G40A G66A	< 1e-05 s⁻¹				< 1e-05 s⁻¹
U30G A52U U54A	< 1e-05 s⁻¹				4.6e-05 ± 1.6e-05 s⁻¹
A6U C16U U30C	< 1e-05 s⁻¹				
A39G U69A	8.49e-05 ± 1.6e-05 s⁻¹	9.95e-05 ± 2.2e-05 s⁻¹	0.000395 ± 6.6e-05 s⁻¹	0.000452 ± 0.00012 s⁻¹	0.000139 ± 2.2e-05 s⁻¹
U65C C68U C71U	< 1e-05 s⁻¹				
G7A G62C	< 1e-05 s⁻¹	< 1e-05 s⁻¹	< 1e-05 s⁻¹	< 1e-05 s⁻¹	
U54A G63A	< 1e-05 s⁻¹	< 1e-05 s⁻¹	< 1e-05 s⁻¹		
G13C G35U	< 1e-05 s⁻¹	< 1e-05 s⁻¹			< 1e-05 s⁻¹
A12C U30G U54G	3.64e-05 ± 1.3e-05 s⁻¹			0.000897 ± 0.00025 s⁻¹	0.00183 ± 0.00039 s⁻¹
G13U C61U	< 1e-05 s⁻¹	< 1e-05 s⁻¹	< 1e-05 s⁻¹		< 1e-05 s⁻¹
G51A C58A	< 1e-05 s⁻¹		< 1e-05 s⁻¹		< 1e-05 s⁻¹
C61A U69A	< 1e-05 s⁻¹				< 1e-05 s⁻¹
G13U G38C G43U	< 1e-05 s⁻¹				< 1e-05 s⁻¹
A1U U2G A3G A5U A6C G7C C8A G29C G32U G60U	< 1e-05 s⁻¹				
G13U A14U U30C A33C C71A	< 1e-05 s⁻¹				< 1e-05 s⁻¹
C8U A15C	< 1e-05 s⁻¹	< 1e-05 s⁻¹	< 1e-05 s⁻¹		
C10U U47A G62U A64U U69A	< 1e-05 s⁻¹				
G7C G9C A15U	< 1e-05 s⁻¹				< 1e-05 s⁻¹
G29U G62U	< 1e-05 s⁻¹	< 1e-05 s⁻¹	< 1e-05 s⁻¹	< 1e-05 s⁻¹	< 1e-05 s⁻¹
